# Experimental data reported in FireProtDB (doi:10.1126/science.aai7825).
# B1: NADPH-dependent 7-cyano-7-deazaguanine reductase wild type, Q46920 (protein)
# chain: MSSYANHQALAGLTLGKSTDYRDTYDASLLQGVPRSLNRDPLGLKADNLPFHGTDIWTLYELSWLNAKGLPQVAVGHVELDYTSVNLIESKSFKLYLNSFNQTRFNNWDEVRQTLERDLSTCAQGKISVALYRLDELEGQPIGHFNGTCIDDQDITIDNYEFTTDYLENATCGEKVVEETLVSHLLKSNCLITHQPDWGSLQIQYRGRQIDREKLLRYLVSFRHHNEFHEQCVERIFNDLLRFCQPEKLSVYARYTRRGGLDINPWRSNSDFVPSTTRLVRQ
# B2: Ribosome-recycling factor wild type, P0A805 (protein)
# chain: MISDIRKDAEVRMDKCVEAFKTQISKIRTGRASPSLLDGIVVEYYGTPTPLRQLASVTVEDSRTLKINVFDRSMSPAVEKAIMASDLGLNPNSAGSDIRVPLPPLTEERRKDLTKIVRGEAEQARVAVRNVRRDANDKVKALLKDKEISEDDDRRSQDDVQKLTDAAIKKIEAALADKEAELMQF
# B3: Transcriptional repressor MprA wild type, P0ACR9 (protein)
# chain: MDSSFTPIEQMLKFRASRHEDFPYQEILLTRLCMHMQSKLLENRNKMLKAQGINETLFMALITLESQENHSIQPSELSCALGSSRTNATRIADELEKRGWIERRESDNDRRCLHLQLTEKGHEFLREVLPPQHNCLHQLWSALSTTEKDQLEQITRKLLSRLDQMEQDGVVLEAMS
# B4: Multidrug efflux pump subunit AcrA wild type, P0AE06 (protein)
# chain: MNKNRGFTPLAVVLMLSGSLALTGCDDKQAQQGGQQMPAVGVVTVKTEPLQITTELPGRTSAYRIAEVRPQVSGIILKRNFKEGSDIEAGVSLYQIDPATYQATYDSAKGDLAKAQAAANIAQLTVNRYQKLLGTQYISKQEYDQALADAQQANAAVTAAKAAVETARINLAYTKVTSPISGRIGKSNVTEGALVQNGQATALATVQQLDPIYVDVTQSSNDFLRLKQELANGTLKQENGKAKVSLITSDGIKFPQDGTLEFSDVTVDQTTGSITLRAIFPNPDHTLLPGMFVRARLEEGLNPNAILVPQQGVTRTPRGDATVLVVGADDKVETRPIVASQAIGDKWLVTEGLKAGDRVVISGLQKVRPGVQVKAQEVTADNNQQAASGAQPEQSKS
# B5: Enoyl-[acyl-carrier-protein] reductase [NADH] FabI wild type, P0AEK4 (protein)
# chain: MGFLSGKRILVTGVASKLSIAYGIAQAMHREGAELAFTYQNDKLKGRVEEFAAQLGSDIVLQCDVAEDASIDTMFAELGKVWPKFDGFVHSIGFAPGDQLDGDYVNAVTREGFKIAHDISSYSFVAMAKACRSMLNPGSALLTLSYLGAERAIPNYNVMGLAKASLEANVRYMANAMGPEGVRVNAISAGPIRTLAASGIKDFRKMLAHCEAVTPIRRTVTIEDVGNSAAFLCSDLSAGISGEVVHVDGGFSIAAMNELELK
# B6: Zinc chaperone YeiR wild type, P33030 (protein)
# chain: MTRTNLITGFLGSGKTTSILHLLAHKDPNEKWAVLVNEFGEVGIDGALLADSGALLKEIPGGCMCCVNGLPMQVGLNTLLRQGKPDRLLIEPTGLGHPKQILDLLTAPVYEPWIDLRATLCILDPRLLLDEKSASNENFRDQLAAADIIVANKSDRTTPESEQALQRWWQQNGGDRQLIHSEHGKVDGHLLDLPRRNLAELPASAAHSHQHVVKKGLAALSLPEHQRWRRSLNSGQGYQACGWIFDADTVFDTIGILEWARLAPVERVKGVLRIPEGLVRINRQGDDLHIETQNVAPPDSRIELISSSEADWNALQSALLKLRLATTA
# B7: Homoserine O-succinyltransferase wild type, P07623 (protein)
# chain: MPIRVPDELPAVNFLREENVFVMTTSRASGQEIRPLKVLILNLMPKKIETENQFLRLLSNSPLQVDIQLLRIDSRESRNTPAEHLNNFYCNFEDIQDQNFDGLIVTGAPLGLVEFNDVAYWPQIKQVLEWSKDHVTSTLFVCWAVQAALNILYGIPKQTRTEKLSGVYEHHILHPHALLTRGFDDSFLAPHSRYADFPAALIRDYTDLEILAETEEGDAYLFASKDKRIAFVTGHPEYDAQTLAQEFFRDVEAGLDPDVPYNYFPHNDPQNTPRASWRSHGNLLFTNWLNYYVYQITPYDLRHMNPTLD
# B8: Uncharacterized protein YjaG wild type, P32680 (protein)
# chain: MLQNPIHLRLERLESWQHVTFMACLCERMYPNYAMFCQQTGFGDGQIYRRILDLIWETLTVKDAKVNFDSQLEKFEEAIPSADDFDLYGVYPAIDACVALSELVHSRLSGETLEHAVEVSKTSITTVAMLEMTQAGREMSDEELKENPAVEQEWDIQWEIFRLLAECEERDIELIKGLRADLREAGESNIGIIFQQ
# B9: Acetylornithine deacetylase wild type, P23908 (protein)
# chain: MKNKLPPFIEIYRALIATPSISATEEALDQSNADLITLLADWFKDLGFNVEVQPVPGTRNKFNMLASIGQGAGGLLLAGHTDTVPFDDGRWTRDPFTLTEHDGKLYGLGTADMKGFFAFILDALRDVDVTKLKKPLYILATADEETSMAGARYFAETTALRPDCAIIGEPTSLQPVRAHKGHISNAIRIQGQSGHSSDPARGVNAIELMHDAIGHILQLRDNLKERYHYEAFTVPYPTLNLGHIHGGDASNRICACCELHMDIRPLPGMTLNELNGLLNDALAPVSERWPGRLTVDELHPPIPGYECPPNHQLVEVVEKLLGAKTEVVNYCTEAPFIQTLCPTLVLGPGSINQAHQPDEYLETRFIKPTRELITQVIHHFCWH
# B10: HTH-type transcriptional repressor PurR wild type, P0ACP7 (protein)
# chain: MATIKDVAKRANVSTTTVSHVINKTRFVAEETRNAVWAAIKELHYSPSAVARSLKVNHTKSIGLLATSSEAAYFAEIIEAVEKNCFQKGYTLILGNAWNNLEKQRAYLSMMAQKRVDGLLVMCSEYPEPLLAMLEEYRHIPMVVMDWGEAKADFTDAVIDNAFEGGYMAGRYLIERGHREIGVIPGPLERNTGAGRLAGFMKAMEEAMIKVPESWIVQGDFEPESGYRAMQQILSQPHRPTAVFCGGDIMAMGALCAADEMGLRVPQDVSLIGYDNVRNARYFTPALTTIHQPKDSLGETAFNMLLDRIVNKREEPQSIEVHPRLIERRSVADGPFRDYRR
# B11: NH(3)-dependent NAD(+) synthetase wild type, P18843 (protein)
# chain: MTLQQQIIKALGAKPQINAEEEIRRSVDFLKSYLQTYPFIKSLVLGISGGQDSTLAGKLCQMAINELRLETGNESLQFIAVRLPYGVQADEQDCQDAIAFIQPDRVLTVNIKGAVLASEQALREAGIELSDFVRGNEKARERMKAQYSIAGMTSGVVVGTDHAAEAITGFFTKYGDGGTDINPLYRLNKRQGKQLLAALACPEHLYKKAPTADLEDDRPSLPDEVALGVTYDNIDDYLEGKNVPQQVARTIENWYLKTEHKRRPPITVFDDFWKK
# B12: Pyruvate formate-lyase 1-activating enzyme wild type, P0A9N4 (protein)
# chain: MSVIGRIHSFESCGTVDGPGIRFITFFQGCLMRCLYCHNRDTWDTHGGKEVTVEDLMKEVVTYRHFMNASGGGVTASGGEAILQAEFVRDWFRACKKEGIHTCLDTNGFVRRYDPVIDELLEVTDLVMLDLKQMNDEIHQNLVGVSNHRTLEFAKYLANKNVKVWIRYVVVPGWSDDDDSAHRLGEFTRDMGNVEKIELLPYHELGKHKWVAMGEEYKLDGVKPPKKETMERVKGILEQYGHKVMF
# B13: Nicotinate phosphoribosyltransferase wild type, P18133 (protein)
# chain: MTQFASPVLHSLLDTDAYKLHMQQAVFHHYYDVHVAAEFRCRGDDLLGIYADAIREQVQAMQHLRLQDDEYQWLSALPFFKADYLNWLREFRFNPEQVTVSNDNGKLDIRLSGPWREVILWEVPLLAVISEMVHRYRSPQADVAQALDTLESKLVDFSALTAGLDMSRFHLMDFGTRRRFSREVQETIVKRLQQESWFVGTSNYDLARRLSLTPMGTQAHEWFQAHQQISPDLANSQRAALAAWLEEYPDQLGIALTDCITMDAFLRDFGVEFASRYQGLRHDSGDPVEWGEKAIAHYEKLGIDPQSKTLVFSDNLDLRKAVELYRHFSSRVQLSFGIGTRLTCDIPQVKPLNIVIKLVECNGKPVAKLSDSPGKTICHDKAFVRALRKAFDLPHIKKAS
# B14: Acyl-CoA thioester hydrolase YciA wild type, P0A8Z0 (protein)
# chain: MSTTHNVPQGDLVLRTLAMPADTNANGDIFGGWLMSQMDIGGAILAKEIAHGRVVTVRVEGMTFLRPVAVGDVVCCYARCVQKGTTSVSINIEVWVKKVASEPIGQRYKATEALFKYVAVDPEGKPRALPVE
# B15: Ribosomal protein uL3 glutamine methyltransferase wild type, P39199 (protein)
# chain: MDKIFVDEAVNELQTIQDMLRWSVSRFSAANIWYGHGTDNPWDEAVQLVLPSLYLPLDIPEDMRTARLTSSEKHRIVERVIRRVNERIPVAYLTNKAWFCGHEFYVDERVLVPRSPIGELINNKFAGLISKQPQHILDMCTGSGCIAIACAYAFPDAEVDAVDISPDALAVAEQNIEEHGLIHNVIPIRSDLFRDLPKVQYDLIVTNPPYVDAEDMSDLPNEYRHEPELGLASGTDGLKLTRRILGNAADYLADDGVLICEVGNSMVHLMEQYPDVPFTWLEFDNGGDGVFMLTKEQLIAAREHFAIYKD
# B16: Transcriptional regulatory protein PhoP wild type, P23836 (protein)
# chain: MRVLVVEDNALLRHHLKVQIQDAGHQVDDAEDAKEADYYLNEHIPDIAIVDLGLPDEDGLSLIRRWRSNDVSLPILVLTARESWQDKVEVLSAGADDYVTKPFHIEEVMARMQALMRRNSGLASQVISLPPFQVDLSRRELSINDEVIKLTAFEYTIMETLIRNNGKVVSKDSLMLQLYPDAELRESHTIDVLMGRLRKKIQAQYPQEVITTVRGQGYLFELR
# B17: tRNA pseudouridine synthase D wild type, Q57261 (protein)
# chain: MIEFDNLTYLHGKPQGTGLLKANPEDFVVVEDLGFEPDGEGEHILVRILKNGCNTRFVADALAKFLKIHAREVSFAGQKDKHAVTEQWLCARVPGKEMPDLSAFQLEGCQVLEYARHKRKLRLGALKGNAFTLVLREVSNRDDVEQRLIDICVKGVPNYFGAQRFGIGGSNLQGAQRWAQTNTPVRDRNKRSFWLSAARSALFNQIVAERLKKADVNQVVDGDALQLAGRGSWFVATTEELAELQRRVNDKELMITAALPGSGEWGTQREALAFEQAAVAAETELQALLVREKVEAARRAMLLYPQQLSWNWWDDVTVEIRFWLPAGSFATSVVRELINTTGDYAHIAE
# Settings: Escherichia coli (strain K12); pH 7.5; Thermal; Intensity; HEPES 20mM; transition: 2; whole UniProt chain shown
protein,measurement,value
B1,Tm,43.9 °C
B2,Tm,44.4 °C
B3,Tm,45.9 °C
B4,Tm,45.7 °C
B5,Tm,45.3 °C
B6,Tm,46.2 °C
B7,Tm,45.7 °C
B8,Tm,46.1 °C
B9,Tm,45.9 °C
B10,Tm,45.6 °C
B11,Tm,45.1 °C
B12,Tm,43.4 °C
B13,Tm,45.7 °C
B14,Tm,46.3 °C
B15,Tm,45.5 °C
B16,Tm,42.6 °C
B17,Tm,43.8 °C
